Results from the Immune Epitope Database (IEDB).

How the values were obtained:
[1] = biological target: HLA-B*58:01; experiment: IEDB peptide-MHC binding, purified MHC/direct/fluorescence; filed as Kd, often an IC50 or EC50 that approximates it; ≥ and ≤ were set here for values at or beyond the usual limits of such assays
[2] = biological target: HLA-A*24:02; experiment: IEDB peptide-MHC binding, purified MHC/competitive/radioactivity; filed as Kd, often an IC50 or EC50 that approximates it; ≥ and ≤ were set here for values at or beyond the usual limits of such assays
[3] = biological target: HLA-A*23:01; experiment: as above
[4] = biological target: HLA-A*32:01; experiment: as above
[5] = biological target: HLA-A*02:03; experiment: as above
[6] = biological target: HLA-A*02:02; experiment: as above
[7] = biological target: HLA-A*02:06; experiment: as above
[8] = biological target: HLA-B*40:01; experiment: IEDB peptide-MHC binding, purified MHC/direct/fluorescence; filed as Kd, often an IC50 or EC50 that approximates it; ≥ and ≤ were set here for values at or beyond the usual limits of such assays
[9] = biological target: HLA-A*01:01; experiment: IEDB peptide-MHC binding, purified MHC/competitive/radioactivity; filed as Kd, often an IC50 or EC50 that approximates it; ≥ and ≤ were set here for values at or beyond the usual limits of such assays
[10] = biological target: HLA-A*69:01; experiment: IEDB peptide-MHC binding, purified MHC/direct/fluorescence; filed as Kd, often an IC50 or EC50 that approximates it; ≥ and ≤ were set here for values at or beyond the usual limits of such assays
[11] = biological target: HLA-A*02:01; experiment: as above
[12] = biological target: HLA-A*11:01; experiment: as above
[13] = biological target: HLA-A*01:01; experiment: as above; conditions: source organism: Homo sapiens
[14] = biological target: HLA-A*03:01; experiment: as above
[15] = biological target: HLA-A*26:01; experiment: IEDB peptide-MHC binding, purified MHC/competitive/radioactivity; filed as Kd, often an IC50 or EC50 that approximates it; ≥ and ≤ were set here for values at or beyond the usual limits of such assays
[16] = biological target: HLA-A*30:02; experiment: as above; conditions: source organism: Dengue virus 2 Jamaica/1409/1983
[17] = source organism: Dengue virus 1 Brazil/97-11/1997
[18] = source organism: Vaccinia virus WR
[19] = source organism: Dengue virus 4 Philippines/H241/1956
[20] = source organism: Giardia lamblia ATCC 50803
[21] = source organism: Dengue virus 3 Martinique/1243/1999
[22] = source organism: Dengue virus 2 Jamaica/1409/1983
[23] = source organism: Burkholderia ambifaria AMMD
[24] = source organism: Mycobacterium tuberculosis
[25] = source organism: SARS coronavirus Tor2

Sequence RLVDSIVSW has a Kd ([1]; source organism: Influenza A virus (A/Istanbul/CTF/10/2004(H3N2))) of 49.1 nM.

RSCTLPPLRF showed a Kd [2, 17] of 10700 nM and a Kd [3, 17] of 2520 nM.

With RSIMGSNNI the Kd [4, 18] was 141 nM.

For RTAGMIIML, the Kd ([4]; source organism: Dengue virus 2 Peru/IQT2913/1996) was 96.5 nM.

With RVTKRDESSI the Kd [5, 18] was 10700 nM, the Kd [6, 18] was 12300 nM and the Kd [7, 18] was ≥ 22200 nM.

For RVTTELNIV, the Kd [5, 18] was 116 nM, the Kd [6, 18] was 2460 nM and the Kd [7, 18] was 45.7 nM.

SEVSNVQRL was tested, and the Kd ([8]; source organism: Mammarenavirus lassaense) was 70.9 nM.

In the case of SICEIVYSF, the Kd [4, 18] is reported as 0.352 nM.

SIRCVKYLL gave a Kd [5, 18] of 55.7 nM, a Kd [6, 18] of 107 nM and a Kd [7, 18] of 2880 nM.

For SLDRKEFEEY, the Kd [9, 19] was 1050 nM.

Work on SLGILCVSI yielded a Kd [4, 17] of 238 nM.

For SLGKSPLPSL, the Kd [5, 18] was 46.8 nM, the Kd [6, 18] was 4.07 nM and the Kd [7, 18] was 1430 nM.

Work on SLKRFTHTTA yielded a Kd [5, 18] of 726 nM, a Kd [6, 18] of 884 nM and a Kd [7, 18] of 7320 nM.

SLNPYYQSY was tested, and the Kd [10, 20] was ≥ 20000 nM and the Kd [11, 20] was ≥ 20000 nM.

With SMTSDSKSI the Kd [5, 18] was 2300 nM, the Kd [6, 18] was 8350 nM and the Kd [7, 18] was ≥ 55800 nM.

With SMYVIPDELI the Kd [5, 18] was 114 nM, the Kd [6, 18] was 30.7 nM and the Kd [7, 18] was 492 nM.

SSVSSFERF was tested, and the Kd ([1]; source organism: Influenza A virus (A/camel/Mongolia/1982(H1N1))) was 72.5 nM.

For STDGPERVIL, the Kd [9, 19] was 18700 nM.

In the case of STDHIPILY, the Kd ([1]; source organism: Homo sapiens) is reported as 2030 nM, the Kd ([10]; source organism: Homo sapiens) is reported as 7420 nM and the Kd ([12]; source organism: Homo sapiens) is reported as 381 nM. The Kd [13] was 148 nM and the Kd ([14]; source organism: Homo sapiens) was 3150 nM.

For STIANSNII, the Kd [5, 18] was 1470 nM, the Kd [6, 18] was 6120 nM and the Kd [4, 18] was 14.3 nM. For the same sequence, the Kd [7, 18] was 1240 nM.

For SVGTGILFM, the Kd [5, 18] was 2250 nM, the Kd [6, 18] was 1090 nM and the Kd [7, 18] was ≥ 20700 nM.

For SWALCEALTL, the Kd [2, 21] was 500 nM and the Kd [3, 21] was 429 nM.

Work on TEEAFKIGL yielded a Kd ([8]; source organism: Mammarenavirus juninense) of 0.3 nM.

In the case of TINALVYFST, the Kd [5, 18] is reported as 7340 nM, the Kd [6, 18] is reported as 14100 nM and the Kd [7, 18] is reported as ≥ 62200 nM.

TLISSDGARV showed a Kd [5, 18] of 133 nM, a Kd [6, 18] of 142 nM and a Kd [7, 18] of 1220 nM.

For TLVKSGLTEV, the Kd [5, 18] was 2.93 nM, the Kd [6, 18] was 64.1 nM and the Kd [7, 18] was 45.1 nM.

TLYNHHRQY showed a Kd ([14]; source organism: Burkholderia mallei) of 46 nM.

For TVITPMLRH, the Kd [15, 21] was 14300 nM.

In the case of VAGGLLTVCY, the Kd [16] is reported as 108 nM and the Kd [9, 22] is reported as ≥ 37000 nM.

VILKDPRIA showed a Kd [5, 18] of 603 nM, a Kd [6, 18] of 10600 nM and a Kd [7, 18] of 318 nM.

Sequence VMPEKRNVV has a Kd [5, 18] of 23 nM, a Kd [6, 18] of 1100 nM and a Kd [7, 18] of 3290 nM.

Work on VQSVLRDISI yielded a Kd [5, 18] of 541 nM, a Kd [6, 18] of 77.9 nM and a Kd [7, 18] of 132 nM.

VQTLISLNSM showed a Kd [5, 18] of 5820 nM, a Kd [6, 18] of 1560 nM and a Kd [7, 18] of 853 nM.

With VTLFIDRGSI the Kd [5, 18] was 2250 nM, the Kd [6, 18] was 3830 nM and the Kd [7, 18] was 3010 nM.

Work on WLVHKQWFLD yielded a Kd [4, 17] of 2070 nM.

With WNSGYDWITD the Kd [4, 17] was 4830 nM.

With WYMWLGARF the Kd [2, 22] was 16.2 nM and the Kd [3, 22] was 20.2 nM.

For YIAGLKIEEI, the Kd [5, 18] was 5.3 nM, the Kd [6, 18] was 8.92 nM and the Kd [7, 18] was 134 nM.

YLNGGRRGY was tested, and the Kd [10, 23] was ≥ 20000 nM and the Kd [11, 23] was ≥ 20000 nM.

YQGKTVWFVP was tested, and the Kd [4, 19] was 8500 nM.

Work on YSDPLALKE yielded a Kd [9, 22] of 311 nM.

With YTKHSMLTNA the Kd [5, 18] was 141 nM, the Kd [6, 18] was 3900 nM and the Kd [7, 18] was 7340 nM.

Sequence YTQLRFPKK has a Kd [12, 24] of 4.3 nM and a Kd [14, 24] of 493 nM.

YVIKVSARV was tested, and the Kd ([15]; source organism: Homo sapiens) was 8.61 nM.

For YVIPDELIDV, the Kd [5, 18] was 13.9 nM, the Kd [6, 18] was 18.1 nM and the Kd [7, 18] was 12.3 nM.

Sequence YVVVHGYFT has a Kd [5, 25] of 792 nM, a Kd [6, 25] of 342 nM and a Kd [7, 25] of 171 nM.
